Results from article PMC4166039.
Where two headings read alike, the source gives them in different places.

Assays:
Test in all cases: cross-linking
[1] = biological target: human IgG1 (human) [IgG part: P01857]
[2] = biological target: human IgG4 isotype control antibody (human) [IgG part: P01861]
[3] = biological target: hamster IgG1 anti-CD3E antibody (145-2C11) (hamster)
[4] = biological target: human IgG2 isotype control antibody (human) [IgG part: P01859]
[5] = biological target: human IgG1 (human) [IgG part: P01857]; remark: listed apart in the source
[6] = biological target: rat IgG2c isotype control antibody (rat) (UniProt P20762)
Chain of UniProt P20762 (P20762 whole entry, looked up): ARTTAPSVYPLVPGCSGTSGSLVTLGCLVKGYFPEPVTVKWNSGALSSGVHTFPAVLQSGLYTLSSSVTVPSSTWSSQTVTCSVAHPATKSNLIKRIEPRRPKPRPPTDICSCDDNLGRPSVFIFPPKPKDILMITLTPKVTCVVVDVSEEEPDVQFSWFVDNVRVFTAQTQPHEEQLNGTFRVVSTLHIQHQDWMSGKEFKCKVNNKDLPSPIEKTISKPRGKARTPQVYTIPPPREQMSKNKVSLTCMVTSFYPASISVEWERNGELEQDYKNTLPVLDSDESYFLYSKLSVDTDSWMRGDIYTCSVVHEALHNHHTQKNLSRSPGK

mouse IgG2a (mouse) = biological target: mouse IgG2a (mouse)
[7] = biological target: mouse IgG2b isotype control antibody (mouse) (UniProt P01867)
[8] = biological target: rat IgG2b anti-ICAM1 antibody (YN-1) (rat) (UniProt P20761)
Chain of UniProt P20761 (P20761 whole entry, looked up): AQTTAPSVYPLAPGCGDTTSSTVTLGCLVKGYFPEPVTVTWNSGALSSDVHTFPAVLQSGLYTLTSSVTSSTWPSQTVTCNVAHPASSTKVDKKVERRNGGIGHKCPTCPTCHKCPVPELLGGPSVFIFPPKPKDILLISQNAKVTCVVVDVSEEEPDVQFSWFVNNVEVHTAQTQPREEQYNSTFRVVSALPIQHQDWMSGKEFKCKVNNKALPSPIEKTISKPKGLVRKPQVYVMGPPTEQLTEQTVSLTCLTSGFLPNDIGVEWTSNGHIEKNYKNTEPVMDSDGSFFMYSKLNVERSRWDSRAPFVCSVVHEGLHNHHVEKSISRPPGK

mouse IgG3 (mouse) = biological target: mouse IgG3 (mouse)
[9] = biological target: mouse IgG1 (mouse) [IgG part: P01868]
[10] = biological target: mouse IgG1 (mouse) [IgG part: P01868]; remark: listed apart in the source
[11] = biological target: rat IgG1 isotype control antibody (rat)

Protein Z K35BPA variant (designed binder)
percent of heavy chains cross-linked (1 h UV) [1]: 50% | percent of heavy chains cross-linked (1 h UV) [2]: 50% | percent of heavy chains cross-linked (1 h UV) [3]: 30% | percent of heavy chains cross-linked (1 h UV) [4]: 17% | percent of heavy chains cross-linked (1 h UV) [5]: 47% | percent of heavy chains cross-linked (2 h UV) [5]: > 55% | percent of intact IgG cross-linked (1 h UV) [5]: 60% | percent of intact IgG cross-linked (2 h UV) [5]: > 70%

Protein Z K35BPA variant with the background F5I mutation (designed binder)
percent of heavy chains cross-linked (1 h UV) [3]: 37%

Protein Z L17BPA variant (designed binder)
percent of heavy chains cross-linked (1 h UV) [6]: 60% | percent of heavy chains cross-linked (1 h UV) (mouse IgG2a (mouse)): 60% | percent of heavy chains cross-linked (1 h UV) [7]: 71% | percent of heavy chains cross-linked (1 h UV) [8]: 20% | percent of heavy chains cross-linked (15 min UV) (mouse IgG3 (mouse)): > 70% | percent of heavy chains cross-linked (1 h UV) (mouse IgG3 (mouse)): 80% | percent of heavy chains cross-linked (2 h UV) (mouse IgG3 (mouse)): 90% | percent of intact IgG cross-linked (15 min UV) (mouse IgG3 (mouse)): 90% | percent of intact IgG cross-linked (1 h UV) (mouse IgG3 (mouse)): > 95% | percent of intact IgG cross-linked (2 h UV) (mouse IgG3 (mouse)): > 96%

Protein Z Q32BPA variant (designed binder)
percent of heavy chains cross-linked (1 h UV) [9]: 50% | percent of heavy chains cross-linked (1 h UV) [10]: 50% | percent of heavy chains cross-linked (2 h UV) [10]: > 55% | percent of intact IgG cross-linked (1 h UV) [10]: 60% | percent of intact IgG cross-linked (2 h UV) [10]: > 70% | percent of heavy chains cross-linked (1 h UV) [3]: 20% | percent of heavy chains cross-linked (1 h UV) [11]: 10% | percent of heavy chains cross-linked (1 h UV) [4]: 12% | percent of heavy chains cross-linked (1 h UV) [5]: 37%
